Our source for the Kd values is paper PMC8809517, “Cofactor-independent RNA editing by a synthetic S-type PPR protein”.

What all share (assay): high-throughput RNA pulldown from lysate on Ni-NTA beads; HRP: 50 mM Tris pH 8, 150 mM NaCl, 1 mM beta-mercaptoethanol, 50 ug/ml BSA, 3 ug/ml yeast RNA, 0.5% heparin; ITC and FP: Tris pH 8, 200 mM KCl, 5% glycerol; MST: 50 mM Tris pH 8, 200 mM NaCl, 1 mM DTT, BSA, heparin, 0.05% Tween 20
What all share (conditions): tags: N-terminal His-eGFP

Data set [1] concerns the target T1, GFP-9S library array, motif 4 ND N98I;D124G (synthetic construct, N98I;D124G).
T1 chain: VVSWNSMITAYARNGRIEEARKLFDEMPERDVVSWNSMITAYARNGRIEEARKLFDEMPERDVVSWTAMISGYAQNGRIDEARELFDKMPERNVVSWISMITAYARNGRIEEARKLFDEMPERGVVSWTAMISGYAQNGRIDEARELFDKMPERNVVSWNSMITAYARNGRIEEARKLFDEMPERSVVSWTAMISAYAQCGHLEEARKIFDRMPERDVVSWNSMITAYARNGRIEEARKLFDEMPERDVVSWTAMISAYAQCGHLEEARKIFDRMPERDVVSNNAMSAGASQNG

Data set [2] addresses T2, GFP-9S library array, motif 4 ND N98C;D124Y (synthetic construct, N98C;D124Y).
T2 chain: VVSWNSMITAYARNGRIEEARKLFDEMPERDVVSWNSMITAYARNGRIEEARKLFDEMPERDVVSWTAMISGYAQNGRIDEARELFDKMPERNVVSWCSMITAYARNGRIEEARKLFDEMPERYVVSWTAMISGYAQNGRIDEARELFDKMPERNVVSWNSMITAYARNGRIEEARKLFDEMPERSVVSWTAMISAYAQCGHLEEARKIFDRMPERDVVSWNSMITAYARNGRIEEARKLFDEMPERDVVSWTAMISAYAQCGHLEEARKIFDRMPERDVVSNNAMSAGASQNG

The target of data set [3] is T3, GFP-9S library array, motif 4 ND N98Y;D124T (synthetic construct, N98Y;D124T).
T3 chain: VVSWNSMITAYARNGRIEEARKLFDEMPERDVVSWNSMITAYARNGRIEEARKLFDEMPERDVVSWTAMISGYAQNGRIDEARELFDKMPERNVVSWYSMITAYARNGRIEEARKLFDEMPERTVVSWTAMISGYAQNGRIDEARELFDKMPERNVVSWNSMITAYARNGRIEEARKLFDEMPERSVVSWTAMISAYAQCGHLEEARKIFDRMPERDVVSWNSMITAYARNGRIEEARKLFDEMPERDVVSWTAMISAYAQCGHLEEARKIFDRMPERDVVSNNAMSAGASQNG

Data set [4] addresses T4, GFP-9S library array, motif 4 ND N98W;D124V (synthetic construct, N98W;D124V).
T4 chain: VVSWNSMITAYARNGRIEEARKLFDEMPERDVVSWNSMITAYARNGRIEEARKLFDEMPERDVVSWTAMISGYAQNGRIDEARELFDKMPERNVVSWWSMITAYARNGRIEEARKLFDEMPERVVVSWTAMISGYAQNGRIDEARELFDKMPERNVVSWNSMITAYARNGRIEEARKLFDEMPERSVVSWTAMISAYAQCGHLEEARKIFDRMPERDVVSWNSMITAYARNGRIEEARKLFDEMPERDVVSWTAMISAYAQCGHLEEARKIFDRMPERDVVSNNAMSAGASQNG

Data set [5] addresses T5, GFP-9S library array, motif 4 ND N98S;D124N (synthetic construct, N98S;D124N).
T5 chain: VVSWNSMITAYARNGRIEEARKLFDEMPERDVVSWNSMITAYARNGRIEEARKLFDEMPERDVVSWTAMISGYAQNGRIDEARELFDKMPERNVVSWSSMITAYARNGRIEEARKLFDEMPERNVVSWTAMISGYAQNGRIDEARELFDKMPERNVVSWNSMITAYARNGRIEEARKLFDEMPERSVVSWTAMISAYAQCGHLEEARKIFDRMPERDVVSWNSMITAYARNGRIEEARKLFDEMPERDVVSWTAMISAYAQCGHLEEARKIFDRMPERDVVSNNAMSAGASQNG

AUUACACGUGA (ssRNA) [Cy5-rpoA]: the Kd (usually the equilibrium constant for the complex coming apart) in data set [1] (label: 5' Cy5) worked out at 69.2 nM; in data set [2] (label: 5' Cy5), 56.9 nM; in data set [3] (label: 5' Cy5) it was 96.3 nM; in data set [4] (label: 5' Cy5), 41.1 nM; in data set [5] (label: 5' Cy5) it was 235 nM.

As for AUUAAACGUGA (ssRNA) [IR-rpoA-A], the dissociation constant (Kd) in data set [1] (label: 5' IRDye 800CW) was 40.6 nM; in data set [2] (label: 5' IRDye 800CW), 217 nM; in data set [3] (label: 5' IRDye 800CW) it was 158 nM; in data set [4] (label: 5' IRDye 800CW), 95.6 nM; in data set [5] (label: 5' IRDye 800CW), 50.8 nM.

For AUUAGACGUGA (ssRNA) [Cy5-rpoA-G], the Kd came out at 72 nM in data set [1] (label: 5' Cy5); 72.3 nM in data set [2] (label: 5' Cy5); 105 nM in data set [3] (label: 5' Cy5); 50.8 nM in data set [4] (label: 5' Cy5); 296 nM in data set [5] (label: 5' Cy5).

On to AUUAUACGUGA (ssRNA) [IR-rpoA-U], for which the dissociation constant (Kd) in data set [1] (label: 5' IRDye 800CW) was 26.6 nM; in data set [2] (label: 5' IRDye 800CW), 94.2 nM; in data set [3] (label: 5' IRDye 800CW) it was 75 nM; in data set [4] (label: 5' IRDye 800CW), 100 nM; in data set [5] (label: 5' IRDye 800CW) it was 272 nM.
